Source: paper PMC5035592

What was measured:
[1] = target: platelet glycoprotein Ib alpha (UniProt P07359); test: VWF:GPIb binding assay
[2] = target: equine collagen (Horm), a mixture of 95 % collagen type I and 5 % type III (equine); test: VWF collagen binding assay

Row | ratio of VWF:GPIbα binding to VWF:Ag [1] | VWF:GPIbα binding (in relation to rwtVWF) [1] | ratio of VWF:GPIbα binding to VWF:Ag in medium (in relation to rwtVWF) [1] | ratio of VWF:CB to VWF:Ag in medium (in relation to rwtVWF) [2] | Substance
1 | 1.06 | – | – | – | plasma von Willebrand factor of a normal person (from UniProt P04275-1 764-2813) (natural protein)
2 | – | 1 | 1 | 1 | recombinant wild type von Willebrand factor (from UniProt P04275-1 764-2813) (natural protein)
